We go through 4 variants from IntAct's records for PubMed 31552791.

The labels stand for the following.
B1: Ras-related protein Rab-38 (Homo sapiens), P57729 (parent)
chain: MQAPHKEHLYKLLVIGDLGVGKTSIIKRYVHQNFSSHYRATIGVDFALKVLHWDPETVVRLQLWDIAGQERFGNMTRVYYREAMGAFIVFDVTRPATFEAVAKWKNDLDSKLSLPNGKPVSVVLLANKCDQGKDVLMNNGLKMDQFCKEHGFVGWFETSAKENINIDEASRCLVKHILANECDLMESIEPDVVKPHLTSTKVASCSGCAKS

In the assay the parent is B1. As to conditions: with lrrk2_human LRRK2, Q5S007.
Chain of lrrk2_human LRRK2, Q5S007 (Q5S007 whole entry): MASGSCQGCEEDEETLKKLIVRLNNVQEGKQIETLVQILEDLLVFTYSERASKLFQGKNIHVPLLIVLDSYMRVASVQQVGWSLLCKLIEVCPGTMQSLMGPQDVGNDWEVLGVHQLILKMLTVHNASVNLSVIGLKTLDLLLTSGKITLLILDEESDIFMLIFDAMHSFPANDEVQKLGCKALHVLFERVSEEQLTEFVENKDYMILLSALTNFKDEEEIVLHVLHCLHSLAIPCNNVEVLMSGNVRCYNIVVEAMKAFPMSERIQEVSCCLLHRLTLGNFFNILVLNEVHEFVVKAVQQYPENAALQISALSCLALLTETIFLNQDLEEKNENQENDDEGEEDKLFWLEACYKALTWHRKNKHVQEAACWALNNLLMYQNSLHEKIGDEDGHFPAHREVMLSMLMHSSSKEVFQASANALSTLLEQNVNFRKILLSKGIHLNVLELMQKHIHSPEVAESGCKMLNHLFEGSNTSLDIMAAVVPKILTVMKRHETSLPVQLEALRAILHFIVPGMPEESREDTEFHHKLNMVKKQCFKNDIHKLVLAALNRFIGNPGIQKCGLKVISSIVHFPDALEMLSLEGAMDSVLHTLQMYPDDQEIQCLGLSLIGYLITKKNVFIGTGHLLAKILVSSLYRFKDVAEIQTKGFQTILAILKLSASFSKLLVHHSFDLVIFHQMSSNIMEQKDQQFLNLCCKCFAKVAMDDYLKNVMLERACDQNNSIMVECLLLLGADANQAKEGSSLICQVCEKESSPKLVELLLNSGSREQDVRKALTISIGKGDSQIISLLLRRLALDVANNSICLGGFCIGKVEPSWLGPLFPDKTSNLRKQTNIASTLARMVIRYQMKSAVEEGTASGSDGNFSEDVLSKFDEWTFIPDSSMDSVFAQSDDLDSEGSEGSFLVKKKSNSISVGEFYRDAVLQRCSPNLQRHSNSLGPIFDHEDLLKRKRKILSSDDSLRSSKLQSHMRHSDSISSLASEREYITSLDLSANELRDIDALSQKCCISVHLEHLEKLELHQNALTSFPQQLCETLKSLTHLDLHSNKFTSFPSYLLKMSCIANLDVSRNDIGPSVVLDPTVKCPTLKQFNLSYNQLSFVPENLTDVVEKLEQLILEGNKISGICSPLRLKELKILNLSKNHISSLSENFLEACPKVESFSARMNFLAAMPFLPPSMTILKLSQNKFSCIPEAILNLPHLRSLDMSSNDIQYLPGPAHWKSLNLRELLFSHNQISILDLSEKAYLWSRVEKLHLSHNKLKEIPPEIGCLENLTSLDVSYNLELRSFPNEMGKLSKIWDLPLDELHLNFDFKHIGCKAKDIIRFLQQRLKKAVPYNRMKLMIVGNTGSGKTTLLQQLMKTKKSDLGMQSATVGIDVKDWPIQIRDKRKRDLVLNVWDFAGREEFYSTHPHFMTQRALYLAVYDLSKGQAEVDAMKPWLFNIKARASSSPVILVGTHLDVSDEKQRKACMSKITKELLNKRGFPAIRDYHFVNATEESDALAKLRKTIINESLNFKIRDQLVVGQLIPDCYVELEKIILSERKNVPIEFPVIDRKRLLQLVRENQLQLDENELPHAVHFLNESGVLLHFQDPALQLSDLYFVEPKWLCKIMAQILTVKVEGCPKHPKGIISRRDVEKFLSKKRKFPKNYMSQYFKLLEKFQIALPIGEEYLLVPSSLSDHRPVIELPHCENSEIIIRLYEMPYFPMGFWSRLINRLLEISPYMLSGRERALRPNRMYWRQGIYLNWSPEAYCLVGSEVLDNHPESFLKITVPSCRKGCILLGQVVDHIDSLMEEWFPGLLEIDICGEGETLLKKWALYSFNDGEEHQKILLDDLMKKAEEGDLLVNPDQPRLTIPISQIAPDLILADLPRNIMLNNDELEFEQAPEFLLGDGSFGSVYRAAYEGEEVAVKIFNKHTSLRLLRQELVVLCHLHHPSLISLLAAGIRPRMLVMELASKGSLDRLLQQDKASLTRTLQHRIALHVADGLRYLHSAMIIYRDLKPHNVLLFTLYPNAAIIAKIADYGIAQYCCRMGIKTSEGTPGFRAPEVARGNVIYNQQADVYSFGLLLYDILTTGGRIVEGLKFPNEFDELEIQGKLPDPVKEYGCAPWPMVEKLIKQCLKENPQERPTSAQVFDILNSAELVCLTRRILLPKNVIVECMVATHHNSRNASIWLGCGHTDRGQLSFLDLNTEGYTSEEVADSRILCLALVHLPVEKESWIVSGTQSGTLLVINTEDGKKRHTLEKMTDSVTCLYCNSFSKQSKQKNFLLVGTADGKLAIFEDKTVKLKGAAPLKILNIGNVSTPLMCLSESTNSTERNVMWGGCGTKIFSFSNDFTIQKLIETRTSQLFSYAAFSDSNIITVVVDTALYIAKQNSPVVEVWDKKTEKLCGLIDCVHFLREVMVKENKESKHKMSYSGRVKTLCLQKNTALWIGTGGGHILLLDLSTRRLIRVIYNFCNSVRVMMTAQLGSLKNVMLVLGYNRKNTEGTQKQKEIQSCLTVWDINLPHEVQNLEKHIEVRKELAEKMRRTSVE
As to MQAPHKEHLYKLLVIGDLGVGKTSIIKRYVHQNFSSHYRATAGVDFALKVLHWDPETVVRLQLWDIAGQERFGNMTRVYYREAMGAFIVFDVTRPATFEAVAKWKNDLDSKLSLPNGKPVSVVLLANKCDQGKDVLMNNGLKMDQFCKEHGFVGWFETSAKENINIDEASRCLVKHILANECDLMESIEPDVVKPHLTSTKVASCSGCAKS [I42A], the “effect of a mutation on the interaction” value was “with no effect”.

Regarding MQAPHKEHLYKLLVIGDLGVGKTSIIKRYVHQNFSSHYRATEGVDFALKVLHWDPETVVRLQLWDIAGQERFGNMTRVYYREAMGAFIVFDVTRPATFEAVAKWKNDLDSKLSLPNGKPVSVVLLANKCDQGKDVLMNNGLKMDQFCKEHGFVGWFETSAKENINIDEASRCLVKHILANECDLMESIEPDVVKPHLTSTKVASCSGCAKS [I42E], the “effect of a mutation on the interaction” value is given as “with no effect”.

On to MQAPHKEHLYKLLVIGDLGVGKTSIIKRYVHQNFSSHYQATIGVDFALKVLHWDPETVVRLQLWDIAGQERFGNMTRVYYREAMGAFIVFDVTRPATFEAVAKWKNDLDSKLSLPNGKPVSVVLLANKCDQGKDVLMNNGLKMDQFCKEHGFVGWFETSAKENINIDEASRCLVKHILANECDLMESIEPDVVKPHLTSTKVASCSGCAKS [R39Q], for which the “effect of a mutation on the interaction” value is “decreasing interaction strength”.

With MQAPHKEHLYKLLVIGDLGVGKTSIIKRYVHQNFSSHYRATIGVDFALKVLHWDPETVVRLQLWDIAGQERFGNMTQVYYQEAMGAFIVFDVTRPATFEAVAKWKNDLDSKLSLPNGKPVSVVLLANKCDQGKDVLMNNGLKMDQFCKEHGFVGWFETSAKENINIDEASRCLVKHILANECDLMESIEPDVVKPHLTSTKVASCSGCAKS [R77Q;R81Q], the “effect of a mutation on the interaction” value is “with no effect”.
